What was measured:
[1] = molecular target: T1, mouse CD40 on blood cells (mouse, UniProt P27512 20-289); experiment: FACS, whole blood
T1 construct: whole, on cells; also called mouse blood

rat CD40 on blood cells = molecular target: T2, rat CD40 on blood cells (rat, UniProt A6JXD6 20-289); experiment: FACS, whole blood
T2 construct: also called rat blood
T2 sequence: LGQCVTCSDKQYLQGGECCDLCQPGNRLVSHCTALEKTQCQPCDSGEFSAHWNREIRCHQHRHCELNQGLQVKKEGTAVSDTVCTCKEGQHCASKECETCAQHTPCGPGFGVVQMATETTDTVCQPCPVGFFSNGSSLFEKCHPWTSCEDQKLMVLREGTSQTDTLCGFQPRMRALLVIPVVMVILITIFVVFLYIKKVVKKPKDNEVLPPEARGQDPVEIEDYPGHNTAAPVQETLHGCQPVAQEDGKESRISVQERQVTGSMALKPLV

dog CD40 on blood cells = molecular target: T3, dog CD40 on blood cells (dog, UniProt Q7YRL5 21-274); experiment: FACS, whole blood
T3 construct: whole, on cells; also called dog blood
T3 sequence (looked up): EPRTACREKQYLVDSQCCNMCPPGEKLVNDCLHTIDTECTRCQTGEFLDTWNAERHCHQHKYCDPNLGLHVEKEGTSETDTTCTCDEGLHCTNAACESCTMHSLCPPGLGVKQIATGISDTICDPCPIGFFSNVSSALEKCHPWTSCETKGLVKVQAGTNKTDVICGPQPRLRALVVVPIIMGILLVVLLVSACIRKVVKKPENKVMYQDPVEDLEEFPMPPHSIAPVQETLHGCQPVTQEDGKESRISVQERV

human CD40 on cells [2] = molecular target: T4, human CD40 on cells (human, UniProt P25942 21-277); experiment: cell-based or functional assay
T4 sequence (P25942 21-277): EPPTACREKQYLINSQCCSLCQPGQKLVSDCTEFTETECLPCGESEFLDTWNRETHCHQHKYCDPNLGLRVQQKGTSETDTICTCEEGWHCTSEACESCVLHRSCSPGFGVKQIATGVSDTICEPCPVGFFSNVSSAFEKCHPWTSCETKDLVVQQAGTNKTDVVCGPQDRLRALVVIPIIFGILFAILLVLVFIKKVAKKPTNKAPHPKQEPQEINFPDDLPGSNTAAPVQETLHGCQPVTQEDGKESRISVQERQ

human CD40 on cells [3] = molecular target: T4, human CD40 on cells; experiment: cell-based or functional assay; remark: listed apart in the source
human CD40 on cells [4] = molecular target: T4, human CD40 on cells; experiment: cell-based or functional assay; remark: listed apart in the source
human CD40 on cells [5] = molecular target: T4, human CD40 on cells; experiment: cell-based or functional assay; remark: listed apart in the source
[6] = molecular target: T5, human/mouse chimeric CD40 HuD1 (human; mouse, UniProt P25942 21-64; P27512 65-147, limits assumed); experiment: ELISA on chimeric CD40
T5 construct: domain: D1;domain: D2-D3
T5 sequence (P25942 other isoform, or with tags, fused parts or gaps mutant limits assumed): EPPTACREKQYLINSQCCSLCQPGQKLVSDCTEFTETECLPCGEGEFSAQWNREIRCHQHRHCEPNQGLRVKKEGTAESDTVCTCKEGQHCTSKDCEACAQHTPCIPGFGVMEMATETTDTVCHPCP

[7] = molecular target: T6, human/mouse chimeric CD40 HuD3 (mouse; human, UniProt P27512 20-94; P25942 95-147, limits assumed); experiment: ELISA on chimeric CD40
T6 construct: domain: D1-D2;domain: D3
T6 sequence (P27512 other isoform, or with tags, fused parts or gaps mutant limits assumed): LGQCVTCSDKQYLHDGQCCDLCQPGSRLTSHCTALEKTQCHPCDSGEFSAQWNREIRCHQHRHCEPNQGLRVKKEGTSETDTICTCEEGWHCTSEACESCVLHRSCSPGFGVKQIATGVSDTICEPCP

[8] = molecular target: T7, human/mouse chimeric CD40 HuD1, D3 (human; mouse, UniProt P25942 21-64; P27512 65-94; P25942 95-147, limits assumed); experiment: ELISA on chimeric CD40
T7 construct: domain: D1;domain: D2;domain: D3
T7 sequence (P25942 other isoform, or with tags, fused parts or gaps mutant limits assumed): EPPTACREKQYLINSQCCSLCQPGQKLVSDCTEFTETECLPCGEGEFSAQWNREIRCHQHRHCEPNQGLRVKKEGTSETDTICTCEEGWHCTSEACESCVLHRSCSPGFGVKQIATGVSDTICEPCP

Mouse CD40(D1-D3)-6Xhis = molecular target: T8, Mouse CD40(D1-D3)-6Xhis (mouse, UniProt P27512 20-147, limits assumed); experiment: ELISA, 293F supernatant
T8 construct: domain: D1-D3; also called Mouse CD40(D1-D3)-6xHis fusion protein
T8 sequence (P27512 other isoform, or with tags, fused parts or gaps limits assumed): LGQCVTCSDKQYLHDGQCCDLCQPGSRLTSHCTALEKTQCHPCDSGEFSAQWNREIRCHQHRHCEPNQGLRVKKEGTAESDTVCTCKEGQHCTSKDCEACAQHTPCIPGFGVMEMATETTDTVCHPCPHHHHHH
From the text: Binding of anti-CD40 human antibodies were detected with HRP conjugated goat anti-human IgG (FC specific Caltag H10507), diluted 1:2,000.

RANK/Ig = experiment: ELISA, RANK/Ig coated, antibody 1 µg/ml
RANK/Ig, sequence (Q9Y6Q6 whole entry): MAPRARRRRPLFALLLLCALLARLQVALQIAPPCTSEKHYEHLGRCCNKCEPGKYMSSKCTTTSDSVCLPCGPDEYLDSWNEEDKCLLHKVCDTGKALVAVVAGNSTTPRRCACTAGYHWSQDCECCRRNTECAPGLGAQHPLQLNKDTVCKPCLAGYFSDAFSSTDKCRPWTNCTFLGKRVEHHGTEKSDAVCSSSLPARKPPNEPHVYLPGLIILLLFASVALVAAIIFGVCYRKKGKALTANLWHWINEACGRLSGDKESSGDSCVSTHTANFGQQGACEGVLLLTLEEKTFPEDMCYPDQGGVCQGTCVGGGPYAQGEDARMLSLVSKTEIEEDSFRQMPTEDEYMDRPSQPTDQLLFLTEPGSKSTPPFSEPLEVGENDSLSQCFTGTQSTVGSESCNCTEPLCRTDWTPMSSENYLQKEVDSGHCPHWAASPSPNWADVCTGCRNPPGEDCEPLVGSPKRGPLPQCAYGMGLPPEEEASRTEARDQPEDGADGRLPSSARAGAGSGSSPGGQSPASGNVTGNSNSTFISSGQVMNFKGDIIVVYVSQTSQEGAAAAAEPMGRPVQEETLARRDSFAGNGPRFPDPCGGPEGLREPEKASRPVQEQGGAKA
Method: (§1) We then washed the plate with PBST (PBS+0.1% Tween-20) three times and blocked the plate with PBST+0.5% BSA at 150 µl/well. We incubated the plate at room temperature for 1 hour and then washed with PBST three times. […] We incubated the plate at room temperature for 1 hour then washed with PBST three times. […] We incubated the plate at room temperature for 1 hour and then washed with PBST three times. […] We then read the plate using a SpectraMax™ plate reader.

4-1BB/Ig = molecular target: T9, 4-1BB/Ig; experiment: ELISA, 4-1BB/Ig coated, antibody 1 µg/ml
T9 construct: also called CD137
Method: as §1

TNFR-1/Ig = molecular target: T10, TNFR-1/Ig; experiment: ELISA, TNFR-1/Ig coated, antibody 1 µg/ml
T10 construct: also called Tumor Necrosis Factor Receptor-1
T10 sequence (P19438 whole entry): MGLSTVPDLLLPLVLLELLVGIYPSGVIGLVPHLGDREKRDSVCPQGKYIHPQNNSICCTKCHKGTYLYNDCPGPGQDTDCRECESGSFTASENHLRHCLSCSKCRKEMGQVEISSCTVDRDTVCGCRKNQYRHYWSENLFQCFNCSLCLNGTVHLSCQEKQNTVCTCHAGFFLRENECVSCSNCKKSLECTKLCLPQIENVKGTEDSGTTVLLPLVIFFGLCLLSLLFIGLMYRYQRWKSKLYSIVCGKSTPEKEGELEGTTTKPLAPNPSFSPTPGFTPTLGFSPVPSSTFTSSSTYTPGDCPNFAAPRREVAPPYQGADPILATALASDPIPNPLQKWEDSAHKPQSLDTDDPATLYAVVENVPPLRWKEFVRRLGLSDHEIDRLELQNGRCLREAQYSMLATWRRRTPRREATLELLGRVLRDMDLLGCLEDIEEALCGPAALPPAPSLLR
Method: as §1

TNFR-2/Ig = molecular target: T11, TNFR-2/Ig; experiment: ELISA, TNFR-2/Ig coated, antibody 1 µg/ml
T11 construct: also called Tumor Necrosis Factor Receptor-2
T11 sequence (P20333 23-257): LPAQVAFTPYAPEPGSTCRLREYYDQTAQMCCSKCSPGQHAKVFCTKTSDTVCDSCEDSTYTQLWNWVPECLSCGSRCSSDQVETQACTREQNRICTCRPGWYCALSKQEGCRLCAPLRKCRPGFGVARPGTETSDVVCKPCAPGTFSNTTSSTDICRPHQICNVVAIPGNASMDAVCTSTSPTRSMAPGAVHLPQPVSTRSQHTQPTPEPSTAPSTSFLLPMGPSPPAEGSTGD
Method: as §1

[9] = molecular target: T12, human CD40-IgG1 Fc fusion protein (human, UniProt P25942 21-193); experiment: SPR BIAcore 3000, CD40-Ig immobilised, antibody injected
T12 construct: extracellular domain; also called CD40-Ig fusion protein; CD40-IgG fusion protein; not shown: human IgG1 Fc
T12 sequence (P25942 21-193): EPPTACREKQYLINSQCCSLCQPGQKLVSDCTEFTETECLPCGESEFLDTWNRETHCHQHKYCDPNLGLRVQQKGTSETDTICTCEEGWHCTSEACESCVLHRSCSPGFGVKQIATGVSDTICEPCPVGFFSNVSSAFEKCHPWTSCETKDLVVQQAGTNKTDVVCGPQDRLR

[10] = molecular target: T12, human CD40-IgG1 Fc fusion protein; experiment: ELISA, CD40/Ig coated, antibody 1 µg/ml
human CD40 on cells [11] = molecular target: T4, human CD40 on cells; experiment: FACS on CD19/CD20+ B cells in whole blood
Method: We incubated aliquots of human and monkey whole blood for 1 hour on ice with increasing concentrations of anti-CD40 antibodies of the invention exemplified herein or with an anti-keyhole limpet hemocyanin (KLH) antibody as a negative control. We then incubated the samples for 30 minutes on ice with anti-human IgG2-conjugated RPE (phycoerythrin). We measured binding by flow cytometry of CD19/CD20 positive B cells and analyzed the histograms of fluorescence intensity (F12-H) versus cell number (Counts) using CellQuest software. We estimated binding (K_D) for each antibody from graphs of mean fluorescence intensity versus antibody concentration. We controlled for depletion of the antibody by measuring binding over a range of cell concentrations.

T1 sequence (P27512 20-289): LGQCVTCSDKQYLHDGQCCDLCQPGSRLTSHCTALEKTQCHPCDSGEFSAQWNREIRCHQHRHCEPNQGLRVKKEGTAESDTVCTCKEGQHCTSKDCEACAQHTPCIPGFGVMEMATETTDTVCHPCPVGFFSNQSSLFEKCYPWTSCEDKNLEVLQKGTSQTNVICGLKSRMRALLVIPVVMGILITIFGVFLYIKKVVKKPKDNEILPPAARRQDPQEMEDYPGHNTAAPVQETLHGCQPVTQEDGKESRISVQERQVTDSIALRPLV

B1: monoclonal antibody 23.29.1 (antibody, human IgG2, kappa, V domains shown)
VH: QVQLVESGGGVVQPGRSLRLSCAASGFTFSSYAMHWVRQAPGKGLEWVAVISYDGSNKYYADSVKGRFTIYRDNSKNTLYLQMNSLRAEDTAVYYCARRGHYGNNYYSYYGLDVWGQGTTVTVSS
VL: DIVMTQSPLSLPVTPGEPASISCRSSQSLLPGNGYNYLDWYLQKPGQSPQLLIYLGSNRASGVPDRFSGSGSGTDFTLKISRVEAEDVGIYYCMQALQTPRTFGQGTKVEIKR
notes: Human IgG2 kappa from hybridoma; also called mAb 23.29.1; hybridoma 23.29.1 (LN 15878), ATCC PTA-4553
binding result [1]: no binding
binding result (rat CD40 on blood cells): no binding
binding result (dog CD40 on blood cells): no binding
B cell B7-1 (CD80), fold increase in median intensity at 1 µg/ml (human CD40 on cells [2]): 1.3 fold
B cell B7-2 (CD86), fold increase in median intensity at 1 µg/ml (human CD40 on cells [2]): 0.9 fold
B cell CD23, fold increase in median intensity at 1 µg/ml (human CD40 on cells [2]): 1.1 fold
B cell ICAM (CD54), fold increase in median intensity at 1 µg/ml (human CD40 on cells [2]): 1 fold
B cell MHC Class II, fold increase in median intensity at 1 µg/ml (human CD40 on cells [2]): 1.2 fold
DC B7-1 (CD80), fold increase in median intensity at 1 µg/ml, 72 h (human CD40 on cells [3]): 0.9 fold
DC B7-2 (CD86), fold increase in median intensity at 1 µg/ml, 72 h (human CD40 on cells [3]): 8.4 fold
DC CD83, fold increase in median intensity at 1 µg/ml, 72 h (human CD40 on cells [3]): 10.6 fold
DC ICAM (CD54), fold increase in median intensity at 1 µg/ml, 72 h (human CD40 on cells [3]): 1.2 fold
DC MHC Class II, fold increase in median intensity at 1 µg/ml, 72 h (human CD40 on cells [3]): 2 fold
DC IL-12p70 secretion with LPS, EC50 (human CD40 on cells [4]): 0.1 µg/mL
Allo DC/T IFNγ secretion, EC50 (human CD40 on cells [5]): 0.3 µg/mL
binding result [6]: no binding
binding result [7]: no binding
binding result [8]: no binding
binding result (Mouse CD40(D1-D3)-6Xhis): no binding
CD40 specific signal over the signal for this molecule (RANK/Ig): ≥ 100 fold
CD40 specific signal over the signal for this molecule (4-1BB/Ig): ≥ 100 fold
CD40 specific signal over the signal for this molecule (TNFR-1/Ig): ≥ 100 fold
CD40 specific signal over the signal for this molecule (TNFR-2/Ig): ≥ 100 fold
Kd [9]: 0.0704 nM
koff [9]: 3.9e-05 s⁻¹
kon [9]: 354000 M⁻¹ s⁻¹

B2: monoclonal antibody 7.1.2 (antibody, human IgG2, kappa, V domains shown)
VH: QVQLVESGGGVVQPGRSLRLSCAASGFTFSSYGMHWVRQAPGKGLEWVAVISNDGDNKYHADSVWGRFTISRDNSRSTLYLQMNSLRAEDTAVYYCARRGMGSSGSRGDYYYYYGLDVWGQGTTVTVSS
VL: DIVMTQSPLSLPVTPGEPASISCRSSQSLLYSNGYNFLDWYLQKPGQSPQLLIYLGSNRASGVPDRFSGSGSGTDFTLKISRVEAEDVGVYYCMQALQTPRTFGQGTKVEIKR
notes: Human IgG2 kappa from hybridoma; also called hybridoma 7.1.2 (LN 15849), ATCC PTA-3601
binding result [1]: no binding
binding result (rat CD40 on blood cells): no binding
binding result (dog CD40 on blood cells): no binding
binding result [10]: binds
CD40 specific signal over the signal for this molecule (RANK/Ig): ≥ 100 fold
CD40 specific signal over the signal for this molecule (4-1BB/Ig): ≥ 100 fold
CD40 specific signal over the signal for this molecule (TNFR-1/Ig): ≥ 100 fold
CD40 specific signal over the signal for this molecule (TNFR-2/Ig): ≥ 100 fold
binding result (human CD40 on cells [11]): binds
